From the supplement of paper PMC7877785
± gives the uncertainty stated by the source.

Test: self-splicing fitness, log relative to wild type (ln ratio); higher = more splicing; Tetrahymena group I intron in knt gene, E. coli kanamycin selection, DiMSum; sequences stand for … in CUCUCU…GGAGGGAAAAGUUAUCAGGCAUGCACCUGGUAGCUAGUCUUUAAACCAAUAGAUUGCAUCGGUUUAAAAGGCAAGACCGUCAAAUUGCGGGAAAGGGGUCAACAGCCGUUCAGUACCAAGUCUCAGGGGAAACUUUGAGAUGGCCUUGCAAAGGGUAUGGUAAUAAGCUGACGGACAUGGUCCUAACCACGCAGCCAAGUCCUAAGUCAACAGAUCUUCUGUUGAUAUGGAUGCAGUUCACAGACUAAAUGUCGGUCGGGGAAGAUGUAUUCUUCUCAUAAGAUAUAGUCGGACCUCUCCUUAAUGGGAGCUAGCGGAUGAAGUGAUGCAACACUGGAGCCGCUGGGAACUAAUUUGUAUGCGAAAGUAUAUUGAUUAGUUUUGGAGUACUCGUGGUCG
Summary of the method: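 The eight P1ex-region nucleotides of an intron in the knt kanamycin-resistance gene on pET-22b(+) were all randomised and the library put into E. coli BL21(DE3). Six replicate transformations were grown overnight at 37°C or 30°C on LB agar with or without 25 μg/mL kanamycin, together with 100 μg/mL carbenicillin, 50 μM IPTG and 0.2% rhamnose. Colonies were pooled and amplicon-sequenced on an Illumina HiSeq 2500. Fitness from DiMSum is the error-weighted combination of wild-type-normalised replicate fold changes, kanamycin over none.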

Row | Sequence | self-splicing fitness (ln) (30 °C) | self-splicing fitness (ln) (37 °C)
1 | GGAGAGCAAUAUUACGUCGC | -1.99 ± 0.39 | 0.588 ± 0.38
2 | UUAAAGCAAUAUUACGCAGU | -3.1 ± 0.28 | -1.36 ± 0.18
3 | AUGGAGCAAUAUUACGUCUA | -1.38 ± 0.23 | -0.778 ± 0.19
4 | UGUAAGCAAUAUUACGCGUU | -2.69 ± 0.26 | -0.234 ± 0.2
5 | AGUUAGCAAUAUUACGUAUG | -1.57 ± 0.15 | -2.67 ± 0.29
6 | CAAAAGCAAUAUUACGGGCU | -3.65 ± 0.23 | -2.57 ± 0.21
7 | UGAAAGCAAUAUUACGAAUA | -0.955 ± 0.098 | -0.396 ± 0.12
8 | CGACAGCAAUAUUACGUUGA | -3.63 ± 0.15 | -1.85 ± 0.1
9 | GAAUAGCAAUAUUACGUAAG | -2.32 ± 0.14 | -0.886 ± 0.18
10 | AUACAGCAAUAUUACGGGAU | -0.898 ± 0.076 | -0.747 ± 0.1
11 | CGCUAGCAAUAUUACGUCUA | -2.47 ± 0.22 | -1.59 ± 0.34
12 | CGUUAGCAAUAUUACGCCUG | -0.175 ± 0.085 | 0.664 ± 0.1
13 | UUUAAGCAAUAUUACGCCCA | 0.412 ± 0.32 | 0.619 ± 0.37
14 | AUAAAGCAAUAUUACGUGAA | -1.39 ± 0.094 | -0.724 ± 0.12
15 | GCGCAGCAAUAUUACGCGCC | -3.43 ± 0.26 | -2.41 ± 0.39
16 | AGGAAGCAAUAUUACGAAAU | -3.06 ± 0.2 | -1.53 ± 0.18
17 | GAUCAGCAAUAUUACGUGGA | -2.82 ± 0.26 | -1.22 ± 0.13
18 | GGAGAGCAAUAUUACGUACA | – | -1.61 ± 0.47
19 | CGACAGCAAUAUUACGAGGA | -3.91 ± 0.2 | -2.53 ± 0.18
20 | GACAAGCAAUAUUACGCCCA | -0.451 ± 0.086 | -0.609 ± 0.13
21 | CAGUAGCAAUAUUACGAACA | -3.3 ± 0.48 | -2.86 ± 0.41
22 | GAGAAGCAAUAUUACGAAUA | -1.88 ± 0.25 | -0.917 ± 0.2
23 | CGGCAGCAAUAUUACGCAGA | -3.27 ± 0.31 | -2.48 ± 0.22
24 | AAGAAGCAAUAUUACGAUGA | -0.962 ± 0.096 | -0.249 ± 0.09

Row | Sequence | self-splicing fitness (ln) (30 °C) | self-splicing fitness (ln) (37 °C)
25 | CGCCAGCAAUAUUACGUGCG | -3.99 ± 0.26 | -2.33 ± 0.22
26 | CAAGAGCAAUAUUACGCGCU | -3.72 ± 0.4 | -2.34 ± 0.33
27 | CCUAAGCAAUAUUACGCCAC | -2.75 ± 0.22 | –
28 | GGUAAGCAAUAUUACGGUGA | -1.45 ± 0.12 | -0.756 ± 0.13
29 | AGUUAGCAAUAUUACGCGGG | -4.1 ± 0.33 | -0.533 ± 0.15
30 | AGACAGCAAUAUUACGUACA | -0.745 ± 0.078 | -0.238 ± 0.097
31 | CGGUAGCAAUAUUACGCAUA | -4.37 ± 0.42 | -2.34 ± 0.26
32 | AUCUAGCAAUAUUACGUGCC | -2.47 ± 0.23 | -1.08 ± 0.15
33 | GGUAAGCAAUAUUACGACCC | -1.6 ± 0.26 | -1.75 ± 0.43
34 | CCCCAGCAAUAUUACGCGCC | -3.19 ± 0.19 | -3.17 ± 0.47
35 | CACCAGCAAUAUUACGGUCG | -1.28 ± 0.062 | -0.351 ± 0.069
36 | GUACAGCAAUAUUACGACGA | -1.54 ± 0.14 | -1.07 ± 0.12
37 | AACGAGCAAUAUUACGCAGC | -2.29 ± 0.29 | –
38 | CCUUAGCAAUAUUACGAUGU | -2.14 ± 0.13 | -1.49 ± 0.16
39 | GCCGAGCAAUAUUACGCGGU | -3.47 ± 0.18 | -3.36 ± 0.42
40 | UCUAAGCAAUAUUACGUCGC | -2.06 ± 0.23 | -1.22 ± 0.25
41 | ACAUAGCAAUAUUACGAUGA | -0.75 ± 0.072 | -0.575 ± 0.086
42 | GACAAGCAAUAUUACGAGCG | -1 ± 0.074 | -0.88 ± 0.088
43 | GGGAAGCAAUAUUACGUCAC | -3.08 ± 0.2 | -1.77 ± 0.19
44 | UGUCAGCAAUAUUACGAUAG | -0.276 ± 0.072 | 0.347 ± 0.088
45 | CUGGAGCAAUAUUACGAUGG | -3.66 ± 0.26 | -1.47 ± 0.22
46 | CAGAAGCAAUAUUACGAAUA | -2.43 ± 0.27 | -1.84 ± 0.24
47 | GAGUAGCAAUAUUACGACUG | 0.34 ± 0.24 | -0.96 ± 0.21
48 | UUCGAGCAAUAUUACGGAGG | -4.27 ± 0.34 | -1.47 ± 0.24
